# The DeepSol protein solubility set
# Test: soluble on expression in E. coli; label from the status in PepcDB or PDB records
row,Sequence,soluble on expression in E. coli
1,MGSDKIHHHHHHMKVHLIGHASLFVETLDCNILMDPLLWNPGISEGMQDICPKRQVLHDQIPEFDILVISHQHIDHFNIRSLANLPKHVDVLIPKDQFLETCLRKLGYRHIYPLKDFNEVRIGSTRLVATRSENRVPEYGMIFADSDGVFWNQVDSIVNAQTINEVKSRYPQINFLLAPWQPLLQIQYQYNECVIFPYASYSHLLKIIGLTAPKAIAPGANGFKQINGSSWLNQIVFPVTREQFCHDVQQAYPTIQDRIFSFDPGDVITLNNGEVSHSPQKSTFVKKLADDSDSLYFSPVNTDSKLIDDNPEGYDIEQMKSVIEEEICIHLTKFFNDKKDSLFMEYGYWKAIYQLEVIFPTHSEAWYFDFSEHSIQCRRGKNPLANVFTLIAASSFYGLLKGIKGWDYANFGGYYRCFNKVYQATLYGIIRPFDDSNQGIPDPLSLKFPYKEVYERVRFYEIEKWGQVNDEQTIDKNSQNPMVIIGNTLIKPQHKVQCI,not soluble
2,MTDGSMDIDAMLEGGLEMAKNDRSQSRQRSPARSNRSRSRSKDRKSSSRRSRSRSRDRRGDRGDRRRSRSRSKDRRTTRRRSPSRERRRSRSRDRGAPRRRSRTRSRDRRRSPPRRRDRRTPPRRSPGRRSPPRSRLPGPERRDVMPFNPRHSPPKNAKLELTAEERDQRTLLIMQIARDTRPRDLEEFFSAVGAVRDVRIITDSRTGRSKGICYVEFWDEESVPLGLALNGQRLMGAPLQIQRTCAERNRAANSSVASTLGFVAPGNKGPTHVLVENLHPKIDEKMIRDIFESFGRIEKIDLEVDSNRENRGFATITFRNADDAQKSCEQLNNFELAGRCIRLSIKQESQAPAVKKEEASIHQRSLDDVGDRQGFSLGAGGRQQLMAKLAQGTGSGMELTASAQMAAQHAGHSQIPSIATQCFLLSNMFDPSKETEPAWDHDIREDVIEQCLAHGGALHVFVDKGSEQGNVYVKCPSIVIAHQAVSALHGRWFSGKVITANYVPVNSYHDLFPDAVHARIVLTTRGAAPVVPIVPMVPVVPPQGIANGYGAYGMMAPAHGAPPPPPPQQQGQYGGYGRY,not soluble
3,MSLDSSLFRKPSPRPLRQPTTPFHLQKTLILDLDETLIHSTSRPIHYPGGSSGGGGLLGLSVGGVFGSGRANEGHTVEVVVNGRSTMYHVYKRPYVDHFLKKVASWYTLVIFTASMPEYADPVIDWLDGGRNLFARKLYRENCHVQPNGSYIKDLTLVEKDLSRVCFMDNSPVSYSWNKGRLFSTWRSLEPDRMGTANALPIEGWTSDPNDEALLHSIPVLDSLRFVNDVRRVLGIRGAARARSEGHHHHHH,soluble
4,MGSDKIHHHHHHFDLEPSSSVPTDKVYKTADDFNVAVIGCYSKLQGQVSYFTECCEYRSDNLSLSAPTAGTQDRYDIDQFADKASNGILESAWANFNNGVYRCNLVLDKIDAADFDATLKKQYKGEALFVRALTYFNMYRLWGGIPMTDKVVTVAEALKIGRSSEQQVFDFLTGDLNQVINENMLPSSYTGTDTGRATSGAAMALLGKIYLTFHKWTEARNVLSQLIGRYSLMPTPDKVFDVDNKMNDEIIFAVRFNKDVEGEGHGYWFSIINLTDDTNQTKALKECYKDGDKRKDLITYVKVEDKVCVMNKFKDLKSATYNTVGNDQIILRYADVLLMYAEALNEISYSNSQTSDAMVALNAVHTRAGLSPVQITELADQDSFRKAIMLERQQEFPYEGHRWFDLVRMGGAKEAMKAEGHTIQDFQFLYPIPKTELERINNTELLWQNPGY,not soluble
5,MSSSREENVYLAKLAEQAERYEEMVEFMEKVAKTVDTDELTVEERNLLSVAYKNVIGARRASWRIISSIEQKEESRGNDDHVSIIKDYRGKIETELSKICDGILNLLDSHLVPTASLAESKVFYLKMKGDYHRYLAEFKTGAERKEAAESTLVAYKSAQDIALADLAPTHPIRLGLALNFSVFYYEILNSPDRACSLAKQAFDEAISELDTLGEESYKDSTLIMQLLRDNLTLWNSDINDEAGGDEIKEASKHEPEEGKPAETGQ,soluble
6,EHIEELLRNIRTQVLIKLIKPYTRIHIPFISKELNIDVADVESLLVQCILDNTIHGRIDQVNQLLELDHQKRGGARYTALDKW,soluble
7,MGSDKIHHHHHHMTPNPRHWARELWQRSRDRGLQTHIDVLVDATGLDDYPLLAEHARQSDPPALFKLLEQTPEAALADEGPLLLRLEDGHAAWLDELLERIDCRRHLMLLFSPWPLPRLGEHLRSCTQAEWNQGRSSGVLRFYEPGLFMAVSDMLDPRQSCYLHAPVSSWHWLDRDGRPRALAGHYQAHETPPLQAALRLEAHQVAALRAWSEAEAYRREYFVLPREHGLGSQESLLQHLVQAHLAADRQGLQDFDQRDAFVAQWLREQTPGPGFSPAGTSRA,not soluble
8,MQFSCSIPLPATFRPGDILAFHRRDRQEIAERVNHASVQKAMIWCGAPAYLSISFEPGLAKASLVIDGKIAEDRQPIFEGMVRRMLGLTQEIEIFEERYRDHPQLGILIAQQPGLRVPVTATPFEALTWAVTGQQISVNAAVSLRRKLIGATNTPHSCGLFCYPDARRILELPEETLRQAGFSTTKTRTLLALSALVADNELPLDAWVETLPVDVIREKLEAVRGIGPWTVNYGLLRGFGWLDGSLHGDAAVRRGLQALLGAQDKISEENTKVWLAQFSPWRALVGAHLWAAPVAIALEHHHHHH,not soluble
9,MTTRDLTAAYFQQTISANSNVLVYFWAPLCAPCDLFTPTYEASSRKHFDVVHGKVNIETEKDLASIAGVKLLPTLMAFKKGKLVFKQAGIANPAIMDNLVQQLRAYTFKSPAGEGIGPGTKTSS,soluble
10,MSLSHMANEMLLDIDGMDFVEDEDMGAEGELQFSFDPVSNAPMVSFPSTQQPDLEKLRFKFAPVLSRSFAFNGGSRTGTLYGVQVPYVDNSKEFSQYAAKLFEVYKSLGADKQFAVPTIGLINHTSTLEHNQTVNLALEAIVSELELFIESLKYSGRQQRLVDLEECLSILNCLKTVQFTLDSEEENSRAKFIDSLISWVNRTDGEPSEAVIAKVLGDGKQTPILENPYFWRLLCQLIIRGLFDQAVAAIEKSELLSYLADKCSATHTMVQDMVNLLQGYPRELEPVYREWKDLVLQLHLNWSQSEHKISIELASSLEDCLLIMCGNKSKIIYYSKTWYECYCGLMLYYIPSLQLSEEYLQLVLKEHPLDVTSPWEQACVSIITGKIYSILPVLDSLDSCTAAFTAAICEAKGLLENDLLDDGGLEVSNTGDEMFGLGNTMASYLLNQFALSIVTYEDKNLWAVAIGIIYLTPNYSDAAKRMMIAELLPHYPFQTNDDIEWMLTICAKWKLPQIARTIYRVLGQEALYLNNIIEAISNFSKAGEFEWVKHYSWMIFEASILQGAPLEDEVVNSIVTGEYESAIPKELVEVMVTPAMKQSLSPYAVLFNFFRATEDGRWAEALKLLLSLIEFTYLPPQYLILLIGRFLYPLFLQDESKMFKEQDVLRVIKALEQFHDRPDEITTAMYKELLVKVDTLPKDPLNLINAIRTKLSLKLCHQFMEGHHHHHH,not soluble
11,MKIAIASGKGGTGKTTVAVNLALALEEVQLFDCDVEEPNCNLFLGFEMEPVEEVVFLVPEINPDKCTLCRGCSDFCRYNALAAIPNRILSFPSLCHGCGGCSFVCPAGAIEEKPETIGIIQKALSDSPLTFFCGTLKIGKATATPVIKSLQNHIDESRPAIIDSPPGTACPVLAVMGFADYCVLVTESTPFGFHDFCLALEAARALNVPVGVVLNRDGLGDSRVEDFCRAEGIPILLRIPNDRTIARLYSEGIPFVKEMPEWKKQFKDMFETIKTGLYESKGVQLEHHHHHH,not soluble
12,MSLNKLCVAALSVNNFCDNREALYGVFDGDRNVEVPYLLQCTMSDILAEELQKTKNEEEYMVNTFIVMQRKLGTAGQKLGGAAVLCHIKHDPVDPGGSFTLTSANVGKCQTVLCRNGKPLPLSRSYIMSCEEELKRIKQHKAIITEDGKVNGVTESTRILGYTFLHPSVVPRPHVQSVLLTPQDEFFILGSKGLWDSLSVEEAVEAVRNVPDALAAAKKLCTLAQSYGCHDSISAVVVQLSVTEDEGHHHHHH,not soluble
